Experiment in all cases: pulldown
Series [1] has as its target T1, PK27672.1 (Cannabis sativa) (UniProt A0A7J6HI09).
T1 sequence: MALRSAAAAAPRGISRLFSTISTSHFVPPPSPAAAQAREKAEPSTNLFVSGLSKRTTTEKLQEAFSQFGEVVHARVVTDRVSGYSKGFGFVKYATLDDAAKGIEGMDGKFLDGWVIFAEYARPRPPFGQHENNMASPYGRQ
The note with it: 20 nM protein, 1.5 uM RNA pool; 20 mM HEPES pH 7.8, 70 mM KCl, 10 mM NaCl, 10% glycerol, 2 mM DTT, 0.1 ug/uL BSA; 30 min, 4 C.

The target of series [2] is T2, PK27686.1 K290R (Cannabis sativa) (UniProt A0A7J6ICA3).
T2 sequence: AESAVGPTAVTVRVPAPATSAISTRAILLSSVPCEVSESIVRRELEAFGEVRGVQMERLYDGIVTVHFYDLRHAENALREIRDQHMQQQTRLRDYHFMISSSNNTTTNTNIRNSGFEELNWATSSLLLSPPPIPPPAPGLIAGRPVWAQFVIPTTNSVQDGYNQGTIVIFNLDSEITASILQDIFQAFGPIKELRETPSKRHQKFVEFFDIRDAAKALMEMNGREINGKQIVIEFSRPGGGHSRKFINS
As to conditions: 20 nM protein, 1.5 uM RNA pool; 20 mM HEPES pH 7.8, 70 mM KCl, 10 mM NaCl, 10% glycerol, 2 mM DTT, 0.1 ug/uL BSA; 30 min, 4 C.

Series [3] has as its target T3, CBG04067 ins404_V (Caenorhabditis briggsae) (UniProt Q6E3D5).
T3 sequence: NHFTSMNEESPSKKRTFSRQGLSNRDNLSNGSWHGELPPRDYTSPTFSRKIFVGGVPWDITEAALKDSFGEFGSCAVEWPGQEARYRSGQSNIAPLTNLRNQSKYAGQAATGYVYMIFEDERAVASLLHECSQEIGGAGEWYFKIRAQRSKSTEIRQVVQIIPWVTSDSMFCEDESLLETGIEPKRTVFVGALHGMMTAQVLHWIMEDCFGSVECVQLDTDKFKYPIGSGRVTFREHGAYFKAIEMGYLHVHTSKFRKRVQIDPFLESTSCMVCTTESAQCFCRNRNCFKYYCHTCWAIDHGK
The note with it: 20 nM protein, 1.5 uM RNA pool; 20 mM HEPES pH 7.8, 70 mM KCl, 10 mM NaCl, 10% glycerol, 2 mM DTT, 0.1 ug/uL BSA; 30 min, 4 C.

Series [4] addresses T4, PK22404.1 A169L;A170F;T171A;T450P (Cannabis sativa) (UniProt A0A803PFA7).
T4 sequence: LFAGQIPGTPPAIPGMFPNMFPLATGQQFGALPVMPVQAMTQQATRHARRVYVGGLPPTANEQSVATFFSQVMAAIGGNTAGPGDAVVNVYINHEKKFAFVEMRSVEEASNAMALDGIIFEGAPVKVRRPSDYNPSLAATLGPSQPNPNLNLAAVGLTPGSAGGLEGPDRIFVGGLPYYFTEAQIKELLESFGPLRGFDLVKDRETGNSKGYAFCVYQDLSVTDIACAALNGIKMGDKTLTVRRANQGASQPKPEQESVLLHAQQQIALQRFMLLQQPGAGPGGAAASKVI
As to conditions: 20 nM protein, 1.5 uM RNA pool; 20 mM HEPES pH 7.8, 70 mM KCl, 10 mM NaCl, 10% glycerol, 2 mM DTT, 0.1 ug/uL BSA; 30 min, 4 C.

Series [5] addresses T5, SCL30 (Arabidopsis thaliana) (UniProt Q8L3X8).
T5 sequence: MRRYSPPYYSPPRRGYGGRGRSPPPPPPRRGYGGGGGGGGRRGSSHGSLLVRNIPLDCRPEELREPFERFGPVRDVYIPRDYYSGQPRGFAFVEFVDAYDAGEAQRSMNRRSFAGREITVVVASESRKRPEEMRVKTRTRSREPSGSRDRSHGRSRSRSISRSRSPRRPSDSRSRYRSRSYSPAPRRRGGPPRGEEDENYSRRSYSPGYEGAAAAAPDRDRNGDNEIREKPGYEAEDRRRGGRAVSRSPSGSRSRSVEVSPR
As to conditions: 20 nM protein, 1.5 uM RNA pool; 20 mM HEPES pH 7.8, 70 mM KCl, 10 mM NaCl, 10% glycerol, 2 mM DTT, 0.1 ug/uL BSA; 30 min, 4 C.

Series [6] addresses T6, PK20300.1 (Cannabis sativa) (UniProt A0A803QWA0).
T6 sequence: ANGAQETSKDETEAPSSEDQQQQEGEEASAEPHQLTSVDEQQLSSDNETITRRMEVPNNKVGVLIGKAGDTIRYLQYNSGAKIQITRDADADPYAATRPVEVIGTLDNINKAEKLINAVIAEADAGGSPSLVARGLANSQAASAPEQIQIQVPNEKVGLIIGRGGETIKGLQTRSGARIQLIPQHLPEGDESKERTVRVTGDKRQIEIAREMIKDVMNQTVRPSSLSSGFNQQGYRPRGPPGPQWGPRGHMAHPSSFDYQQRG
As to conditions: 20 nM protein, 1.5 uM RNA pool; 20 mM HEPES pH 7.8, 70 mM KCl, 10 mM NaCl, 10% glycerol, 2 mM DTT, 0.1 ug/uL BSA; 30 min, 4 C.

For series [7], the target named is T7, PFI1175c (Plasmodium falciparum) (UniProt Q8I2R8).
T7 sequence: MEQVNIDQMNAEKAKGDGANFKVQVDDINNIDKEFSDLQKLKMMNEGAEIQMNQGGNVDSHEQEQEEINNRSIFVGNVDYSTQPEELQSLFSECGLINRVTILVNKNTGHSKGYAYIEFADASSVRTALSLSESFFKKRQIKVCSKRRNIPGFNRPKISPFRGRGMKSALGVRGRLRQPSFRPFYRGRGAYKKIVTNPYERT
As to conditions: 20 nM protein, 1.5 uM RNA pool; 20 mM HEPES pH 7.8, 70 mM KCl, 10 mM NaCl, 10% glycerol, 2 mM DTT, 0.1 ug/uL BSA; 30 min, 4 C.

The subject of series [8] is T8, PK23842.1 (Cannabis sativa).
T8 sequence: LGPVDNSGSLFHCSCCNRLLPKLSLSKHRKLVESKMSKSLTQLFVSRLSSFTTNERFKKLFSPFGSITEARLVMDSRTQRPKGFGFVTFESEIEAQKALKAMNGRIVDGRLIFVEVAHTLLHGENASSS
The note with it: 20 nM protein, 1.5 uM RNA pool; 20 mM HEPES pH 7.8, 70 mM KCl, 10 mM NaCl, 10% glycerol, 2 mM DTT, 0.1 ug/uL BSA; 30 min, 4 C.

Another series concerns the target HNRNPA1L2 (Homo sapiens) (UniProt Q32P51). The note with it: 20 nM protein, 1.5 uM RNA pool; 20 mM HEPES pH 7.8, 70 mM KCl, 10 mM NaCl, 10% glycerol, 2 mM DTT, 0.1 ug/uL BSA; 30 min, 4 C (protocol of this paper; not …); cited from earlier work.
In series [9] the target is T9, PK23225.1 P17S (Cannabis sativa) (UniProt A0A7J6EWR7).
T9 sequence: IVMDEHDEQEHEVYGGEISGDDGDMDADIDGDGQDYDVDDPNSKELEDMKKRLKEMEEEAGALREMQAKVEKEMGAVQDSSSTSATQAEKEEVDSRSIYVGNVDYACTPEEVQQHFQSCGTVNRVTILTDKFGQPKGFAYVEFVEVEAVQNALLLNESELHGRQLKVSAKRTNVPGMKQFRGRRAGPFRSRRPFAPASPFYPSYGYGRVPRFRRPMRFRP
The note with it: 20 nM protein, 1.5 uM RNA pool; 20 mM HEPES pH 7.8, 70 mM KCl, 10 mM NaCl, 10% glycerol, 2 mM DTT, 0.1 ug/uL BSA; 30 min, 4 C.

Series [10] has as its target T10, PK14112.1 (Cannabis sativa) (UniProt A0A7J6DPE0).
T10 sequence: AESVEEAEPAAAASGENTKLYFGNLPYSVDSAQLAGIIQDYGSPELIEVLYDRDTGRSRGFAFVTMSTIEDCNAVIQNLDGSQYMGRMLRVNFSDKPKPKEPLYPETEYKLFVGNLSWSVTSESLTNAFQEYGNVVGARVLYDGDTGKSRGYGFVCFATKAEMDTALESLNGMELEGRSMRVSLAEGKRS
The note with it: 20 nM protein, 1.5 uM RNA pool; 20 mM HEPES pH 7.8, 70 mM KCl, 10 mM NaCl, 10% glycerol, 2 mM DTT, 0.1 ug/uL BSA; 30 min, 4 C.

Chain of HNRNPA1L2 (Homo sapiens) (Q32P51 1-226): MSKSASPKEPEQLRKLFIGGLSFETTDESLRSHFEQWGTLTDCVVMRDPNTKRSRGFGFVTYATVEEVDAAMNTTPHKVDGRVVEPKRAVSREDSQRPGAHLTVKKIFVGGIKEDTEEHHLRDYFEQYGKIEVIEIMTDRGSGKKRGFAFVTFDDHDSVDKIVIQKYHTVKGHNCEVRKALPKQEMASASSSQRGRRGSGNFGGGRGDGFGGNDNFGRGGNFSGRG

As to AGUACA [RNAcompete motif RNCMPT00342], in [1], the binding signal (z-score (mean of top ten 7-mers)) came out at 9.79.

The sequence AAUUUU [RNAcompete motif RNCMPT00349] gave a binding signal (z-score (mean of top ten 7-mers)) in [2] of 14.6.

The sequence GUUUUA [RNAcompete motif RNCMPT00341] registered a binding signal (z-score (mean of top ten 7-mers)) in [3] of 9.44.

In series [4], UUUUUUG [RNAcompete motif RNCMPT00343] registered a binding signal (z-score (mean of top ten 7-mers)) of 13.5.

AGAAGA [RNAcompete motif RNCMPT00382] registered a binding signal (z-score (mean of top ten 7-mers)) in [5] of 7.94.

In the case of AGCAUGA [RNAcompete motif RNCMPT00360], the binding signal (z-score (mean of top ten 7-mers)) in series [6] came to 11.4.

In series [7], AAAAAGA [RNAcompete motif RNCMPT00380] gave a binding signal (z-score (mean of top ten 7-mers)) of 9.25.

AAUCCA [RNAcompete motif RNCMPT00372] showed a binding signal (z-score (mean of top ten 7-mers)) in series [8] of 6.16.

As to UAGGG [RNAcompete motif RNCMPT00023], the binding signal (z-score (mean of top ten 7-mers)) with HNRNPA1L2 (Homo sapiens) was 7.23.

Turning to AAAAAGA [RNAcompete motif RNCMPT00370], in [9], the binding signal (z-score (mean of top ten 7-mers)) was 12.

The sequence GAUACUG [RNAcompete motif RNCMPT00392] had a binding signal (z-score (mean of top ten 7-mers)) in series [10] of 8.21.

(Values after PMC12990809.)
